Measurements reported in patent publication US11066482B2, “Specific plasmin inactivation by anticatalytic antibody” (priority 2017, dated 2021).

Columns and labels:
[1] = system: plasmin activity in hamster plasma; assay: Plasmin activity in plasma after urokinase, S2251; format: biochemical; conditions: Pi 1 uM
Procedure: (§1) FIGS. 3A-3D show binding and inhibitory specificity of Pi. […] The effect of various concentrations of Pi (0-2000 nM) on clots formed with human, baboon or African green monkey plasmas. Clot lysis was measured in microtiter plates after addition of urokinase as described in Methods.
(§2) Specificity of plasmin inhibition. The effect of the Pi on different animal plasmins was examined after addition of the plasminogen activator urokinase. Various animal plasmas (5 ul) were mixed in microtiter plates in the presence of Pi (1 uM, 10 ul) or buffer, S2251 (10 ul, 0.5 mM final), urokinase (100 or 200 U) in a total volume of 100 ul with PBS. The plates were incubated at 37 deg. C. and the rate of plasmin generation was monitored by substrate cleavage at 405 nm for 1 hr.

[2] = molecular target: T1, plasmin activity in rat plasma (Rattus norvegicus, UniProt Q01177); assay: Plasmin activity in plasma after urokinase, S2251; format: biochemical; conditions: Pi 1 uM
T1 construct: from tissue; host or cells: rat plasma
Procedure: as §1, §2

plasmin in human plasma = molecular target: T2, plasmin in human plasma (Homo sapiens, UniProt P00747); assay: Plasmin activity in plasma after urokinase, S2251; format: biochemical; conditions: Pi 1 uM
T2 construct: from tissue; host or cells: human plasma
Procedure: as §1, §2

[3] = system: plasmin activity in cat plasma; assay: Plasmin activity in plasma after urokinase, S2251; format: biochemical; conditions: Pi 1 uM
Procedure: as §1, §2

[4] = molecular target: T3, plasmin activity in bovine plasma (Bos taurus, UniProt P06868); assay: Plasmin activity in plasma after urokinase, S2251; format: biochemical; conditions: Pi 1 uM
T3 construct: from tissue; host or cells: bovine plasma
Procedure: as §1, §2

[5] = molecular target: T4, plasmin activity in dog plasma (Canis lupus familiaris, UniProt P80009); assay: Plasmin activity in plasma after urokinase, S2251; format: biochemical; conditions: Pi 1 uM
T4 construct: from tissue; host or cells: dog plasma
Procedure: as §1, §2

[6] = system: plasmin activity in guinea pig plasma; assay: Plasmin activity in plasma after urokinase, S2251; format: biochemical; conditions: Pi 1 uM
Procedure: as §1, §2

fibrinolytic bleeding = assay: Fibrinolytic bleeding assay in vivo (humanized tail bleeding model); parameters: species or system mice; conditions: Pi 100 nmole/kg intravenously, mice given human plasminogen and plasminogen activator
Procedure: Anesthetized mice were treated in a randomized, blinded fashion with saline (Control), Pi (100 nmole/kg) or EACA (510 micromole/kg) intravenously. Human plasminogen (100 nmole/kg) and plasminogen activator (80,000 IU/kg) were given over 60 min. Tail bleeding was initiated 40 min. after the infusion. Tails were pre-warmed for 5 mins in 3 mL of 37° C. saline and bleeding was monitored as described.36,37 N=5-6, Means±SE are shown. *p<0.05, **p<0.01; ns, not significant. Kruskal Wallis one way ANOVA, Dunn's corrections.
Fibrinolytic bleeding assays in vivo. Anesthetized mice were treated in a randomized, blinded fashion with saline (Control), Pi (100 nmole/kg) or EACA (510 micromole/kg). Human plasminogen (100 nmole/kg) and plasminogen activator (80,000 IU/kg) were given over 60 min. Tail bleeding started 40 min. after the infusion. Tails were pre-warmed for 5 mins in 3 mL of 37° C. saline as described.(27, 28).
Suppression of fibrinolytic bleeding in vivo. The potential utility of the Pi for suppression of fibrinolytic bleeding was examined in vivo in randomized, blinded studies of surgical arterial and venous hemorrhage.

human tPA = human tPA (Homo sapiens, UniProt P00750); assay: Specificity of Pi binding (ELISA); conditions: plate coated 10 ug/ml
Procedure: as §1
(§3) Specificity of Pi binding. The binding of the Pi to different serine proteases was assessed by ELISA in 96-well plates coated with human plasminogen, mouse plasminogen, tPA, trypsin or chymotrypsin (10 ug/ml) and blocked with 1% BSA. After incubation and washing, Pi or control monoclonal antibody supernatants (anti-digoxin) were added to the wells for 1 h in triplicate. Then goat anti mouse antibody conjugated with HRP (1:5000, Sc-2005, Santa Cruz) was then added. The plate was washed after incubation for 1 h. TMB was added to the wells and absorbance at 370 nm was recorded.

chymotrypsin = assay: Specificity of Pi binding (ELISA); conditions: plate coated 10 ug/ml
Procedure: as §1, §3

mouse plasminogen = mouse plasminogen (Mus musculus, UniProt P20918); assay: Specificity of Pi binding (ELISA); conditions: plate coated 10 ug/ml
Procedure: as §1, §3

trypsin = assay: Specificity of Pi binding (ELISA); conditions: plate coated 10 ug/ml
Procedure: as §1, §3

[7] = system: plasmin-mediated fibrinolysis of human fibrin clots; assay: Fibrinolysis of 125I-fibrin human plasma clots with tPA, EACA vs Pi; format: biochemical; conditions: tPA 5 nM, 2.5 h; Pi 62.5 to 1000 nM, EACA 0.125 mM to 2 mM
[8] = system: African green monkey clots; assay: Primate clot lysis, microtiter plate, urokinase; format: biochemical; conditions: African green monkey plasma, Pi 0-2000 nM, urokinase 10 U
Procedure: as §1
(§4) The ability of Pi to inhibit primate clot lysis was also examined in a microtiter plate assay. Human, baboon or African green monkey plasma (5 ul) was added to 96-well plates in the presence of various concentrations of Pi (0-2000 nM), CaCl2 (2 mM), thrombin (0.125 U/ml) and human fibrinogen (2 mg/ml) and urokinase (10 U). The wells were incubated at 37° C., clot lysis was recorded kinetically for 120 min. and the time required for complete clot lysis was recorded.

human clots = assay: Primate clot lysis, microtiter plate, urokinase; format: biochemical; conditions: human plasma, Pi 0-2000 nM, urokinase 10 U
Procedure: as §1, §4

baboon clots = assay: Primate clot lysis, microtiter plate, urokinase; format: biochemical; conditions: baboon plasma, Pi 0-2000 nM, urokinase 10 U
Procedure: as §1, §4

Chain of human tPA (P00750 36-562): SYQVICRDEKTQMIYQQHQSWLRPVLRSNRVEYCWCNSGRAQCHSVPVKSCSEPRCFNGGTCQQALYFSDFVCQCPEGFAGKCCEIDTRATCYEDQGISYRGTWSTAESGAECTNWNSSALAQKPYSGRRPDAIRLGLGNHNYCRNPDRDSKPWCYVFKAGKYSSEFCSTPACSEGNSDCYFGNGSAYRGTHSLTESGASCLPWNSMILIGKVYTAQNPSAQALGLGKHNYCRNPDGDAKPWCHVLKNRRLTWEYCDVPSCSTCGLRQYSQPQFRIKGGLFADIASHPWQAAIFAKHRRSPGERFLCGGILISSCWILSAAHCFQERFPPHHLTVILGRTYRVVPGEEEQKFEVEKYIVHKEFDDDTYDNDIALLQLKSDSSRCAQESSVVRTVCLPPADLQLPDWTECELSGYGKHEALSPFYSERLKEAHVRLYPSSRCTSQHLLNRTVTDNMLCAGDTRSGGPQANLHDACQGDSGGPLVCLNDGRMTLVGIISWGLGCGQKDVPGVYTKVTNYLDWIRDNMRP
Chain of mouse plasminogen (P20918 20-812 limits assumed): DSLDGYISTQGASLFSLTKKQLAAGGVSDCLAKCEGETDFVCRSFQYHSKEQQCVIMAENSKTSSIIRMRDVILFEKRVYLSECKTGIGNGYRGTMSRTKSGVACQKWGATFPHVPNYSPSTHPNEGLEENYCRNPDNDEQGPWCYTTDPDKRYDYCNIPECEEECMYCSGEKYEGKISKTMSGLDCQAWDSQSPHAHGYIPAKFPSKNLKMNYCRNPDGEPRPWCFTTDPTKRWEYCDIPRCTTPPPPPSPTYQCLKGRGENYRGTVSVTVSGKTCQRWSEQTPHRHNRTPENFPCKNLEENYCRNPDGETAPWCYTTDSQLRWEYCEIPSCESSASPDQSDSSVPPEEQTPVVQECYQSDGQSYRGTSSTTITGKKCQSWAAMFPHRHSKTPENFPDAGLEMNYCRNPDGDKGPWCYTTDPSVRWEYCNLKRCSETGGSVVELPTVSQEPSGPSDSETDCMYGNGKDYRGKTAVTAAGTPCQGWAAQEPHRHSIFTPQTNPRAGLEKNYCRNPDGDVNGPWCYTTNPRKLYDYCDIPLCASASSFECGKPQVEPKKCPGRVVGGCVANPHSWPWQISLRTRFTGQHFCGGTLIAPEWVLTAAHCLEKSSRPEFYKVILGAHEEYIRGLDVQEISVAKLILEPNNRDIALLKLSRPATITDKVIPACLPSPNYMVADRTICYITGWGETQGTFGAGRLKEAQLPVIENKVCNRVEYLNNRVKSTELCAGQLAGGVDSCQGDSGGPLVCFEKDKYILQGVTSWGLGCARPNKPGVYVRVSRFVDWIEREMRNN
T4 sequence (P80009 with tags, fused parts or gaps): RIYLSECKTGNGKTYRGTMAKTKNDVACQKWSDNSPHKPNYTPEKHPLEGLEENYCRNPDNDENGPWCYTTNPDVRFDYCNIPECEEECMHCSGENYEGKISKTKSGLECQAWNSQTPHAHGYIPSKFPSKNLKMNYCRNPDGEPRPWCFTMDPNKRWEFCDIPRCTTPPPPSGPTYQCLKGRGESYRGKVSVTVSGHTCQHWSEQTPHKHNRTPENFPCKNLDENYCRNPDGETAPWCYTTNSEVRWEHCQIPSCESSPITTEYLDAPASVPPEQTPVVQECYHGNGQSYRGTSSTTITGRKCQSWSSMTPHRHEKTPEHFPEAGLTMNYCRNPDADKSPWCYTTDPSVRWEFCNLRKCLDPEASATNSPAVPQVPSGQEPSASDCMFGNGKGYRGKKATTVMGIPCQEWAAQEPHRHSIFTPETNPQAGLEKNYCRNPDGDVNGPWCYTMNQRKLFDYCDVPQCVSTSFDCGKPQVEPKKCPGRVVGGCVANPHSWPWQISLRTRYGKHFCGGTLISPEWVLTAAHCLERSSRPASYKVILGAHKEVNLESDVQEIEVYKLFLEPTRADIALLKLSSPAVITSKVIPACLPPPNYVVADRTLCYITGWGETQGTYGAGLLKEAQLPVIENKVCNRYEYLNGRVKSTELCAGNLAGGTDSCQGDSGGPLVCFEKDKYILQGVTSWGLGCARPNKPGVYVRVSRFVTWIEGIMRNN
T1 sequence (Q01177 97-581 limits assumed): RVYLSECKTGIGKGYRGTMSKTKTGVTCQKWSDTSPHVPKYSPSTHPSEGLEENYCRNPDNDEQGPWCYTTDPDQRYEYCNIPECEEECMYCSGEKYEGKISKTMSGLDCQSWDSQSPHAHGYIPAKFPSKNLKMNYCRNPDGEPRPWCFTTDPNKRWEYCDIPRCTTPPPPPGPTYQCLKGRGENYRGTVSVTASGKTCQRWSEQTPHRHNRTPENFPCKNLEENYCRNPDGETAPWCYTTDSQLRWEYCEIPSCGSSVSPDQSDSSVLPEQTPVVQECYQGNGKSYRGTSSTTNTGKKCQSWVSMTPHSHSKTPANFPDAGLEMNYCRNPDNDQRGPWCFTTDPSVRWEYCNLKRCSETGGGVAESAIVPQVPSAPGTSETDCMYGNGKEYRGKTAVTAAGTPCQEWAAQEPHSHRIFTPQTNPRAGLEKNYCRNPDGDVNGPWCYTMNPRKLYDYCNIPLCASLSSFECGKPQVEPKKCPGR
T1 sequence (Q01177 582-812 limits assumed): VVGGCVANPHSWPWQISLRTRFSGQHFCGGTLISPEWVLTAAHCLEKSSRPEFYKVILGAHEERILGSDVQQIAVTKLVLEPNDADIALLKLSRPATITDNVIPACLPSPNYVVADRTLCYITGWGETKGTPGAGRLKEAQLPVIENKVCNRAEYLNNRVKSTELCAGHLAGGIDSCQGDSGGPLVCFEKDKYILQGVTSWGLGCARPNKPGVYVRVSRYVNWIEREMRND
T3 sequence (P06868 104-583 limits assumed): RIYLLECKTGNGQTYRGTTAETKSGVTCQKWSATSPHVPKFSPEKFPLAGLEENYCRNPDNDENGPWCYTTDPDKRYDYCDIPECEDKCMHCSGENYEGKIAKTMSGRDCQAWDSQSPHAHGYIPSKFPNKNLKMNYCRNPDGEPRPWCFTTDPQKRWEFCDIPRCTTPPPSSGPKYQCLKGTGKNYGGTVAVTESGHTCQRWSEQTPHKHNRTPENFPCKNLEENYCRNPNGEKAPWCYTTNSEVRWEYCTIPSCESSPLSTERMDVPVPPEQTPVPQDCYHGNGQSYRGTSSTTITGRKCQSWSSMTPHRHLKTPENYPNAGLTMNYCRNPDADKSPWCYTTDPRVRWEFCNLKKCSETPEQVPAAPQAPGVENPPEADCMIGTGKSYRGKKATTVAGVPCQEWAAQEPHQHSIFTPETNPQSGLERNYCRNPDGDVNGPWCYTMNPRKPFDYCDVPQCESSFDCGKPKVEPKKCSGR
T3 sequence (P06868 584-812 limits assumed): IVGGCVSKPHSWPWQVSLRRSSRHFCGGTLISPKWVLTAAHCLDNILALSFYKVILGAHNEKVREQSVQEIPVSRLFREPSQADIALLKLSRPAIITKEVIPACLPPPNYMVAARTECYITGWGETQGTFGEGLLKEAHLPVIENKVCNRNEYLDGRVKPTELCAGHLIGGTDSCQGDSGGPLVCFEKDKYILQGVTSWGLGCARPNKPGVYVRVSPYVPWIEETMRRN
T2 sequence (P00747 97-580 limits assumed): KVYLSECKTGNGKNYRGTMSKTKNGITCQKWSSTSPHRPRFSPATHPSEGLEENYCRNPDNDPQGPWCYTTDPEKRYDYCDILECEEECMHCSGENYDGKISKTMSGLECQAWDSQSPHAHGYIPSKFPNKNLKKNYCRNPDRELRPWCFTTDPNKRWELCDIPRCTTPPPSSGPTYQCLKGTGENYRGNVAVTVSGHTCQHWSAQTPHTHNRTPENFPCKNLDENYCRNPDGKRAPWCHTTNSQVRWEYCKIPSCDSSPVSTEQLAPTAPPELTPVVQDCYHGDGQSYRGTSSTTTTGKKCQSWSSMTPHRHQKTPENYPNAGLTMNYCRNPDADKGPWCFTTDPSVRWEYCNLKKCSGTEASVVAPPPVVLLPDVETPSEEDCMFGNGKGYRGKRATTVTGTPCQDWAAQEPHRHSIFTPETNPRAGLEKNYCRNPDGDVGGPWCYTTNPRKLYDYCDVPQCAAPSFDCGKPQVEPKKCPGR
T2 sequence (P00747 581-810 limits assumed): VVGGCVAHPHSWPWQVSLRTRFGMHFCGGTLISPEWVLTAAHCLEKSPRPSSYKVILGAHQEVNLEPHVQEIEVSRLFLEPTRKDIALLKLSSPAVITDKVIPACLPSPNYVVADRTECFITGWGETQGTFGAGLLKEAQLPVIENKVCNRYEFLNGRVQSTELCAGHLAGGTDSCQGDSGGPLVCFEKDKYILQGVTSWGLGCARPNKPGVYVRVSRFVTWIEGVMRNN

effect on plasmin activity generated by urokinase [1]: did not inhibit plasmin activity | effect on plasmin activity generated by urokinase [2]: did not inhibit plasmin activity | effect on plasmin activity generated by urokinase (plasmin in human plasma): suppressed plasmin | effect on plasmin activity generated by urokinase [3]: did not inhibit plasmin activity | effect on plasmin activity generated by urokinase [4]: did not inhibit plasmin activity | effect on plasmin activity generated by urokinase [5]: did not inhibit plasmin activity | effect on plasmin activity generated by urokinase [6]: did not inhibit plasmin activity | specific binding vs control anti-digoxin antibody (human tPA): no specific binding | specific binding vs control anti-digoxin antibody (chymotrypsin): no specific binding | specific binding vs control anti-digoxin antibody (mouse plasminogen): no specific binding | specific binding vs control anti-digoxin antibody (trypsin): no specific binding | effect on clot lysis [8]: dose-related suppression | effect on clot lysis (baboon clots): dose-related suppression
B1: Pi: mouse monoclonal antibody plasmin inhibitor binding plasmin protease domain loops 4 and 5; LC SEQ ID NO:1, HC SEQ ID NO:4 (antibody)
heavy: EVKLLESGGGLVQPGGSLKLSCAASGFDFSRYWMSWVRQAPGKGLEWIGEINPDSSTINYTPSLKDKFIISRDNAKNSLYLQMSKVRSEDTALYYCASYCGYSYDALDCWGQGTSVTVSSAKTTPPSVYPLAPGSAAQTNSMVTLGCLVKGYFPEPVTVTWNSGSLSSGVHTFPAVLQSDLYTLSSSVTVPSSTWPSETVTCNVAHPASSTKVDKKIVPRDCGCKPCICTVPEVSSVFIFPPKPKDVLTITLTPKVTCVVVDISKDDPEVQFSWFVDDVEVHTAQTQPREEQFNSTFRSVSELPIMHQDWLNGKEFKCRVNSVAFPAPIEKTISKTKGRPKAPQVYTIPPPKEQMAKDKVSLTCMITDFFPEDITVEWQWNGQPAENYKNTQPIMDTDGSYFVYGKLNVQKSNWEAGNTFTCSVLHEGLHNHHTEKSLSHSPGK
light: DIQMTQSPSSLSASLGGKVSITCKASQDINKYISWYQHKPGKGPRLLIHYTSTLQPGIPSRFSGSGSGRDYSFSISNLEPEDIATYYCLQYDNLYTFGGGTKLEIKRADAAPTVSIFPPSSEQLTSGGASVVCFLNNFYPKDINVKWKIDGSERQNGVLNSWTDQDSKDSTYSMSSTLTLTKDEYERHNSYTCEATHKTSTSPIVKSFNWNEC
suppression of bleeding time vs controls (fibrinolytic bleeding): > 80% | suppression of blood loss vs controls (fibrinolytic bleeding): > 85% | effect on fibrinolysis of human fibrin clots [7]: significantly suppressed | effect on clot lysis (human clots): markedly prolonged plasmin-induced fibrinolysis
